# Article PMC2615553 (Immunity, 2008)
# T1: plexinD1-Fc (ectodomain of mouse plexinD1 as C-terminal Fc-fusion construct) (mouse, UniProt Q3UH93 49-1271)
# T1 sequence (looked up): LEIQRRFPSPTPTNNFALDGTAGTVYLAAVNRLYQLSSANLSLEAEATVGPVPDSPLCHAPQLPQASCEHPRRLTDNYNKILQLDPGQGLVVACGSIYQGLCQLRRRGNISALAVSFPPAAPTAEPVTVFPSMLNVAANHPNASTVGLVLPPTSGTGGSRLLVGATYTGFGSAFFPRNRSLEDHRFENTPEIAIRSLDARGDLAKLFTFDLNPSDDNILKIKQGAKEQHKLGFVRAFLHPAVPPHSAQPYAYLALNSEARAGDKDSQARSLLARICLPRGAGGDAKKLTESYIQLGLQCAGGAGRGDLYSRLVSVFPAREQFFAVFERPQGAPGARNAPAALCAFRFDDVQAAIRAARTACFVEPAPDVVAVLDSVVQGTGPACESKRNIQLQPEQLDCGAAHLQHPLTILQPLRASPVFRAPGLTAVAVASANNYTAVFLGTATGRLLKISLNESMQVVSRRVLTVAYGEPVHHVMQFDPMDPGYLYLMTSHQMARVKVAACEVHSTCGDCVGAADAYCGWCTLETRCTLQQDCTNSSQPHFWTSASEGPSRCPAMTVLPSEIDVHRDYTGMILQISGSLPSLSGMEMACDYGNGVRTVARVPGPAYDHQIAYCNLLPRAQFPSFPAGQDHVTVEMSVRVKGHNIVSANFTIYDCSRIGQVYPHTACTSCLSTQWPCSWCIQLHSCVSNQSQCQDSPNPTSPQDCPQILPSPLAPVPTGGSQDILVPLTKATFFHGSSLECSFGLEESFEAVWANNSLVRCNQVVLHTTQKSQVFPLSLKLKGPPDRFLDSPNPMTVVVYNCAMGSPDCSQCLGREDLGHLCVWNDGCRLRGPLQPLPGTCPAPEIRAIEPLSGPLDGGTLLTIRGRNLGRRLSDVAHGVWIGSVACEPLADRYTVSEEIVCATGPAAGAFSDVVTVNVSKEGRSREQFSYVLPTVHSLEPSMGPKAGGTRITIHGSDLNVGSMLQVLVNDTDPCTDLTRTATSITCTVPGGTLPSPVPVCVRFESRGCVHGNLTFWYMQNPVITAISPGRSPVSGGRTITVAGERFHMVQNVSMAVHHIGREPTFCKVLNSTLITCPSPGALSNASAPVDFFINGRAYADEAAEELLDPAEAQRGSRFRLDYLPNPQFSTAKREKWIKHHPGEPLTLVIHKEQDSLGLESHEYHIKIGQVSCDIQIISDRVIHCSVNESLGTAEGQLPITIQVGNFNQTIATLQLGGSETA
# B1: sema3E-Fc (semaphorin 3E as C-terminal Fc-fusion construct) (Fc fusion, UniProt P70275 26-775, looked up)
# chain: ANPSYPRLRLSHKELLELNRTSIFQSPLGFLDLHTMLLDEYQERLFVGGRDLVYSLNLERVSDGYREIYWPSTAVKVEECIMKGKDANECANYIRVLHHYNRTHLLTCATGAFDPHCAFIRVGHHSEEPLFHLESHRSERGRGRCPFDPNSSFVSTLVGNELFAGLYSDYWGRDSAIFRSMGKLGHIRTEHDDERLLKEPKFVGSYMIPDNEDRDDNKMYFFFTEKALEAENNAHTIYTRVGRLCVNDMGGQRILVNKWSTFLKARLVCSVPGMNGIDTYFDELEDVFLLPTRDPKNPVIFGLFNTTSNIFRGHAVCVYHMSSIREAFNGPYAHKEGPEYHWSLYEGKVPYPRPGSCASKVNGGKYGTTKDYPDDAIRFARMHPLMYQPIKPVHKKPILVKTDGKYNLRQLAVDRVEAEDGQYDVLFIGTDTGIVLKVITIYNQETEWMEEVILEELQIFKDPAPIISMEISSKRQQLYIGSASAVAQVRFHHCDMYGSACADCCLARDPYCAWDGISCSRYYPTGAHAKRRFRRQDVRHGNAAQQCFGQQFVGDALDRTEERLAYGIESNSTLLECTPRSLQAKVIWFVQKGRDVRKEEVKTDDRVVKMDLGLLFLRVRKSDAGTYFCQTVEHNFVHTVRKITLEVVEEHKVEGMFHKDHEEERHHKMPCPPLSGMSQGTKPWYKEFLQLIGYSNFQRVEEYCEKVWCTDKKRKKLKMSPSKWKYANPQEKRLRSKAEHFRLPRHTLLS
# Biological target: T1, plexinD1-Fc (ectodomain of mouse …)
# Experiment: SPR
binder,measurement,value
B1,Kd,43.4 nM
